Source: IntAct's records for PubMed 25814554

B1: Pleckstrin homology domain-containing family S member 1 (Homo sapiens), Q5SXH7-1 (parent)
chain: MAGGKQFTFSYENEVCKQDYFIKSPPSQLFSSVTSWKKRFFILSKAGEKSFSLSYYKDHHHRGSIEIDQNSSVEVGISSQEKMQSVQKMFKCHPDEVMSIRTTNREYFLIGHDREKIKDWVSFMSSFRQDIKATQQNTEEELSLGNKRTLFYSSPLLGPSSTSEAVGSSSPRNGLQDKHLMEQSSPGFRQTHLQDLSEATQDVKEENHYLTPRSVLLELDNIIASSDSGESIETDGPDQVSGRIECHYEPMESYFFKETSHESVDSSKEEPQTLPETQDGDLHLQEQGSGIDWCLSPADVEAQTTNDQKGSASLTVVQLSILINNIPDESQVEKLNVFLSPPDVINYLALTEATGRICVSQWEGPPRLGCIFCHGDHLLAVNDLKPQSLEEVSLFLTRSIQKEKLKLTIGRIPNSETFHAASCMCPSKCQSAAPSQLDKPRLNRAPKRSPAIKKSQQKGARE
B2: Tetraspanin-2 (Homo sapiens), O60636 (parent)
chain: MGRFRGGLRCIKYLLLGFNLLFWLAGSAVIAFGLWFRFGGAIKELSSEDKSPEYFYVGLYVLVGAGALMMAVGFFGCCGAMRESQCVLGSFFTCLLVIFAAEVTTGVFAFIGKGVAIRHVQTMYEEAYNDYLKDRGKGNGTLITFHSTFQCCGKESSEQVQPTCPKELLGHKNCIDEIETIISVKLQLIGIVGIGIAGLTIFGMIFSMVLCCAIRNSRDVI

Variants of: B1
Details: with p55g_human PIK3R3, Q92569

| effect of a mutation on the interaction | Variant |
| --- | --- |
| disrupting interaction | D68F |

Variants of: B2
Details: with grb2_human GRB2, P62993

| effect of a mutation on the interaction | Variant |
| --- | --- |
| disrupting interaction | MGRFRGGLRCIKYLLLGFNLLFWLAGSAVIAFGLWFRFGGAIKELSSEDKSPEYFYVGLYVLVGAGALMMAVGFFGCCGAMRESQCVLGSFFTCLLVIFAAEVTTGVFAFIGKGVAIRHVQTMFEEAYNDYLKDRGKGNGTLITFHSTFQCCGKESSEQVQPTCPKELLGHKNCIDEIETIISVKLQLIGIVGIGIAGLTIFGMIFSMVLCCAIRNSRDVI [Y124F] |

Variants of: B2
Details: with p55g_human PIK3R3, Q92569

| effect of a mutation on the interaction | Variant |
| --- | --- |
| disrupting interaction | MGRFRGGLRCIKYLLLGFNLLFWLAGSAVIAFGLWFRFGGAIKELSSEDKSPEYFYVGLYVLVGAGALMMAVGFFGCCGAMRESQCVLGSFFTCLLVIFAAEVTTGVFAFIGKGVAIRHVQTMFEEAYNDYLKDRGKGNGTLITFHSTFQCCGKESSEQVQPTCPKELLGHKNCIDEIETIISVKLQLIGIVGIGIAGLTIFGMIFSMVLCCAIRNSRDVI [Y124F] |
